The values below come from paper doi:10.1101/2020.09.10.290023.

The target of assay [1] is Donor (Alexa 488)-labeled, biotinylated Avi-C-Aβ42 (Avi-D-Aβ42) (UniProt P05067). The assay is described as follows: FRET or BRET. (In general: BRET reads energy transfer from a luciferase to a nearby fluorophore.)
For assay [2], the target named is Donor-labeled tetramerization domain (TD) of p53 with AviTag (Avi-D-TD). The assay can be described thus: FRET or BRET.

The Kd is the free concentration of one partner at which half of the binding sites on the other are occupied at equilibrium, for simple one-to-one binding. Lower therefore signals higher affinity. In general, stoichiometry N refers to a count of units in the complex or per binding partner. In the case of “Acceptor (Alexa 594)-labeled C-Aβ42 (A-Aβ42) (from UniProt P05067 672-713) (peptide)”, in assay [1], the dissociation constant (Kd) came out at 240 µM and the stoichiometry N was more than 10.
Regarding “Acceptor-labeled tetramerization domain (TD) of p53 (TD-A) (domain or fragment)”, the stoichiometry N in assay [2] came to 4.
